Experimental data: article PMC2852398, “Metal-Free ALS Variants of Dimeric Human Cu,Zn-Superoxide Dismutase Have Enhanced Populations of Monomeric Species” (PLoS ONE, 2010)

B1: apo-AS-SOD1 (human Cu,Zn superoxide dismutase, C6A/C111S pseudo-wild-type background, metal-free) (enzyme)
chain: not shown
notes: human Cu,Zn superoxide dismutase (SOD1), 153-residue subunit; Apo (metal-free) form with the intra-subunit C57-C146 disulfide bond intact; also called WT; WT SOD1; source: BL21-Gold(DE3) PLysS cells, purified (anion exchange QSepharose XL and/or gel filtration Sephacryl 200HR)
B2: apo L106V SOD1 in the AS-SOD1 (C6A/C111S) background (enzyme)
chain: not shown
notes: human Cu,Zn superoxide dismutase (SOD1), 153-residue subunit; Apo (metal-free) form with the intra-subunit C57-C146 disulfide bond intact; source: BL21-Gold(DE3) PLysS cells, purified (anion exchange QSepharose XL and/or gel filtration Sephacryl 200HR)
B3: apo S134N SOD1 in the AS-SOD1 (C6A/C111S) background (enzyme)
chain: not shown
notes: as for B2
B4: apo A4V SOD1 in the AS-SOD1 (C6A/C111S) background (enzyme)
chain: not shown
notes: as for B2
B5: apo L38V SOD1 in the AS-SOD1 (C6A/C111S) background (enzyme)
chain: not shown
notes: as for B2

Target: the molecule itself
Assay: global analysis of urea unfolding and refolding kinetics (manual-mixing far-UV CD at 230 nm); kinetic traces at 0.25 to 8.75 M urea and 1 to 40 µM protein fit together to 2U = 2M = N2; constants in the absence of urea; step: dimer (N2) to folded monomers (2M); monomer unfolding rate fixed to that of the stable monomeric variants; apo protein; 10 mM potassium phosphate, 1 mM K2EDTA, pH 7.2, 20°C

Q: For B1, which Kd is on record?
A: Its Kd is 0.87 nM.

Q: And the koff?
A: Its koff is 0.000745 s⁻¹.

Q: And the kon?
A: The kon was 860000 M⁻¹ s⁻¹.

Q: Which results are given for B2?
A: Kd: 21 nM; koff: 0.00151 s⁻¹; kon: 73000 M⁻¹ s⁻¹

Q: B3 was tested. Which Kd did it give?
A: Its Kd is 1.1 nM.

Q: What about the koff of the same protein?
A: The koff was 0.000222 s⁻¹.

Q: What about the kon of the same protein?
A: The kon was 200000 M⁻¹ s⁻¹.

Q: What does the source list for B4?
A: Kd: 123 nM; koff: 0.0223 s⁻¹; kon: 180000 M⁻¹ s⁻¹

Q: B5 was tested. Which Kd did it give?
A: Its Kd is 4.6 nM.

Q: And the koff?
A: Its koff is 0.000557 s⁻¹.

Q: What about the kon of the same protein?
A: The kon was 120000 M⁻¹ s⁻¹.
